Measurements as given in US20200206304A1, “METHODS AND COMPOSITIONS FOR EFFICIENT DELIVERY THROUGH MULTIPLE BIO BARRIERS” (Cedars-Sinai Medical Center, priority 2017, published 2020).
Square brackets hold non-standard residues; d marks the D form. Ends that are not written are not given here.

What was measured:
amyloid β (Aβ) plaques [1] = molecular target: amyloid β (Aβ) plaques (UniProt P05067); assay: in vivo labelling of Aβ plaques after i.v. injection into APPswe/PS1ΔE9 AD mice, injected dose 4X (0.274 µmol/Kg)
Sequence of amyloid β (Aβ) plaques (P05067 672-713): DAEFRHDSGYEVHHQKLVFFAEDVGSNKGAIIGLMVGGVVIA

amyloid β (Aβ) plaques [2] = molecular target: amyloid β (Aβ) plaques (UniProt P05067); assay: in vivo labelling of Aβ plaques after i.v. injection into APPswe/PS1ΔE9 AD mice, injected dose 8X (0.55 µmol/Kg)
amyloid β (Aβ) plaques [3] = molecular target: amyloid β (Aβ) plaques (UniProt P05067); assay: in vivo labelling of Aβ plaques after i.v. injection into APPswe/PS1ΔE9 AD mice, injected dose 6X (0.411 µmol/Kg)
amyloid β (Aβ) plaques [4] = molecular target: amyloid β (Aβ) plaques (UniProt P05067); assay: in vivo labelling of Aβ plaques after i.v. injection into APPswe/PS1ΔE9 AD mice, injected dose 2X (0.137 µmol/Kg)
amyloid β (Aβ) plaques [5] = molecular target: amyloid β (Aβ) plaques (UniProt P05067); assay: in vivo labelling of Aβ plaques after i.v. injection of rhodamine-labelled conjugate into APPswe/PS1ΔE9 AD mice, dose 8X; fluorescence microscopy of brain sections

B1: PMLA/LLL/D3/rhodamine (peptide)
peptide 1: [dR][dP][dR][dT][dR][dL][dH][dT][dH][dR][dN][dR]C
peptide 2: Leu-Leu-Leu
modifications: not fully specified (some residues, N-terminus); also: PMLA scaffold carrying LLL (amide-linked to pendant carboxylates), D3 peptide and rhodamine, D3 Cys thioether to maleimide-PEG3400 on PMLA
Percentage of total plaques labeled by the reagents (amyloid β (Aβ) plaques [1]): 0% | Percentage of total plaques labeled by the reagents (amyloid β (Aβ) plaques [2]): 21.1% | Percentage of total plaques labeled by the reagents (amyloid β (Aβ) plaques [3]): 0% | Percentage of total plaques labeled by the reagents (amyloid β (Aβ) plaques [4]): 0% | Percentage of total plaques labeled by the reagents (amyloid β (Aβ) plaques [5]): 21.1%
